Measured values reported in PMC5720770.

Target: T1, OxyR (Pseudomonas aeruginosa (PAO1?)) (UniProt Q9HTL4)
T1 sequence: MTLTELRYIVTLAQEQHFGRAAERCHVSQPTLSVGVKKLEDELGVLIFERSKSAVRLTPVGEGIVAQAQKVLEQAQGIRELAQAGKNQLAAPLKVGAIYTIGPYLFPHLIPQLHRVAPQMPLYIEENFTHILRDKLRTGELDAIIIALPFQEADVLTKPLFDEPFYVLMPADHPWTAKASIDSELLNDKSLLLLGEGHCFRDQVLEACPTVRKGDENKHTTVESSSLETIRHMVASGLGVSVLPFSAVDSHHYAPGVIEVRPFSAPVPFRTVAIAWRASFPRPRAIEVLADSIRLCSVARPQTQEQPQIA
Assay: DNase I footprinting
Conditions: Footprint: 20 mM Tris-HCl pH 7.0, 50 mM KCl, 1 mM EDTA, 5% glycerol, 50 ug/ml BSA, 5 ug/ml calf thymus DNA, 0.5 ug/ml poly(dI-dC), 25 C, 15 min; EMSA: Roche …

“CAGGCGCTCGGCGGCGCGGGTGAAACTGCCTTCGCGGGCGACGGCGTCGAAGGCGCGGAGCTGGAAGAGATTCATGGTATCGGCCTGGCTTATGGCTGGCATCGGAACAAACAATTTGAACGATAGTAGCGCGGCGCTCACCTTATGTCTCCAGGCTTCCCTGGAACGCCGGCGCGGAACGACCGCCCGGACCGCGAAG (double strand) [phnW promoter 199-bp fragment (footprint)]” was tested, and the binding was “binds”.
